Data: US20120100106A1
Ends that are not written are not given here. * marks the point of attachment. Dansyl = CN(C)c1cccc2c(S(=O)(=O)*)cccc12

B1: … (SILY) peptide (peptide)
peptide: RRANAALKAGELYKSILYGC
B2: Dansyl-… (peptide)
peptide: Dansyl-GRRANAALKAGELYKSILYGC

Assays:
[1] = molecular target: collagen; experiment: SPR (Biacore 2000), collagen immobilised on CM-3 chip, peptide in solution 100 µM to 1.5 µM, from on-off kinetics
[2] = molecular target: collagen; experiment: fluorescence plate binding assay, collagen coated on 96-well high-binding plate, equilibrium fit

| Binder | Kd [1] | Kd [2] |
| --- | --- | --- |
| B1 | 1200 nM |  |
| B2 |  | 860 nM |
